The values below are quoted from earlier work in article PMC5805400.

Data set [1] addresses CYP2B4 (Oryctolagus cuniculus) (UniProt P00178).
Data set [2] shares this target. The source holds these as a separate data set.
Another data set has as its target CYP2J2 (Homo sapiens) (UniProt P51589). As to the kind of experiment: spin shift.
Data set [3] deals with ICP47 (Human alphaherpesvirus 1) (UniProt P03170).
Data set [4] has the same target. The source holds these as a separate data set.

Like-named read-outs stand apart in the source and are kept apart here.

Chain of UniProt P00178 (P00178 whole entry): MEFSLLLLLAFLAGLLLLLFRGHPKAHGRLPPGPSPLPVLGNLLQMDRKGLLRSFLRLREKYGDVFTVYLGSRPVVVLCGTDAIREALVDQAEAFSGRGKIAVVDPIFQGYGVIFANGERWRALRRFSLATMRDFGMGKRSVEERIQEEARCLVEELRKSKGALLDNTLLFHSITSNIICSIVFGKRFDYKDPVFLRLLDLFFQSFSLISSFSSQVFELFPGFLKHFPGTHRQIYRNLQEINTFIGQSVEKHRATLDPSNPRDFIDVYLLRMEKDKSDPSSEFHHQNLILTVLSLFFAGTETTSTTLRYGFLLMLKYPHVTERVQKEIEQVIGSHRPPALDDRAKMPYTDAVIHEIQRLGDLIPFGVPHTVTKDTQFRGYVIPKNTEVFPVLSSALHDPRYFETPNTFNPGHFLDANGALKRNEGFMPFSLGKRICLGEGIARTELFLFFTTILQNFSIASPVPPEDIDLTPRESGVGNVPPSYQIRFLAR
Chain of UniProt P03170 (P03170 whole entry): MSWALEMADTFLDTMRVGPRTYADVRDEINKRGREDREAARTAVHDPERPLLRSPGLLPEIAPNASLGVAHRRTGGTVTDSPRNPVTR
Chain of UniProt P51589 (P51589 whole entry): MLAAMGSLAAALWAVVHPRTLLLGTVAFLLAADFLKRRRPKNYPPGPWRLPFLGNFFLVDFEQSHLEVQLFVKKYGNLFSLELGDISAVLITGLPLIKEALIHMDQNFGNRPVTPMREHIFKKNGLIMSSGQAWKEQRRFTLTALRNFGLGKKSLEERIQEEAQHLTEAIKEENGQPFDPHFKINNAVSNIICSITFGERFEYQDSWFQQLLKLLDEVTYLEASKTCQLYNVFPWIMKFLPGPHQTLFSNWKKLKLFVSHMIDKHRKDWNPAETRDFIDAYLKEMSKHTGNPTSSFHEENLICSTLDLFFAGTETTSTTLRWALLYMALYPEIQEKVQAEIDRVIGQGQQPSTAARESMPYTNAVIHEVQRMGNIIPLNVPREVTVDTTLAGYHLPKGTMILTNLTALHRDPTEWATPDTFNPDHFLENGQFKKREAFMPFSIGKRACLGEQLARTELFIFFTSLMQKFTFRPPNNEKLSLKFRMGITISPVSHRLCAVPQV

Cytochrome b5 (from UniProt P00169): the Kd in data set [1] is 8 nM; in data set [2], 140 nM.

As for CPR (from UniProt P16435), in the data set with CYP2J2 (Homo sapiens), the Kd was 120 nM.

For TAP (from UniProt Q03518), the figures for the Ki in data set [3] and in data set [4] were 210 nM and 280 nM, respectively.

By Kd is commonly meant the constant that tells how readily two partners part at equilibrium. Usually Ki stands for the dissociation constant of the complex between target and ligand, obtained from inhibition or displacement.
